In publication PMC10397247:
Each block holds one binder with its values, some of them ahead of it.

Tests used:
4H1017-AA = target: T1, 4H1017-AA; experiment: two-hybrid library CCmax;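 also: natural log of median RNA to DNA barcode read ratio; higher means stronger binding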
T1 chain: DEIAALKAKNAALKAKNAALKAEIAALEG

4H1082-AA = target: T2, 4H1082-AA; experiment: two-hybrid library CCmax;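 also: natural log of median RNA to DNA barcode read ratio; higher means stronger binding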
T2 chain: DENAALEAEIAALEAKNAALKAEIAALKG

4H1103-AA = target: T3, 4H1103-AA; experiment: two-hybrid library CCmax; settings: mean of both orientations;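 also: natural log of median RNA to DNA barcode read ratio; higher means stronger binding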
T3 chain: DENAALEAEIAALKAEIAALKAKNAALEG

4H1198-AA = target: T4, 4H1198-AA; experiment: two-hybrid library CCmax; settings: mean of both orientations;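 also: natural log of median RNA to DNA barcode read ratio; higher means stronger binding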
T4 chain: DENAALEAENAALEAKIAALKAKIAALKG

4H1350-AA = target: T5, 4H1350-AA; experiment: two-hybrid library CCmax; settings: mean of both orientations;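 also: natural log of median RNA to DNA barcode read ratio; higher means stronger binding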
T5 chain: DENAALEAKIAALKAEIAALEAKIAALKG

4H1405-AA = target: T6, 4H1405-AA; experiment: two-hybrid library CCmax; settings: mean of both orientations;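 also: natural log of median RNA to DNA barcode read ratio; higher means stronger binding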
T6 chain: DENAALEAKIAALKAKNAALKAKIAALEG

4H2211-AA = target: T7, 4H2211-AA; experiment: two-hybrid library CCmax; settings: mean of both orientations
T7 chain: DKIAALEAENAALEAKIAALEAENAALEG

4H2238-AA = target: T8, 4H2238-AA; experiment: two-hybrid library CCmax; settings: mean of both orientations
T8 chain: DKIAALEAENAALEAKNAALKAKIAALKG

4H2513-AA = target: T9, 4H2513-AA; experiment: two-hybrid library CCmax; settings: mean of both orientations
T9 chain: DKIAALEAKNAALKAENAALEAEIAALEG

4H2536-AA = target: T10, 4H2536-AA; experiment: two-hybrid library CCmax; settings: mean of both orientations
T10 chain: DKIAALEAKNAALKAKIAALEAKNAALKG

4H2608-AA = target: T11, 4H2608-AA; experiment: two-hybrid library CCmax; settings: mean of both orientations
T11 chain: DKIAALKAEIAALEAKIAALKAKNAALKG

4H2614-AA = target: T12, 4H2614-AA; experiment: two-hybrid library CCmax; settings: mean of both orientations
T12 chain: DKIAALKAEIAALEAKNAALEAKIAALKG

4H2726-AA = target: T13, 4H2726-AA; experiment: two-hybrid library CCmax; settings: mean of both orientations
T13 chain: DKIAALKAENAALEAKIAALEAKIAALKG

4H2935-AA = target: T14, 4H2935-AA; experiment: two-hybrid library CCmax; settings: mean of both orientations
T14 chain: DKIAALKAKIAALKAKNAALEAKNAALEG

4H327-AA = target: T15, 4H327-AA; experiment: two-hybrid library CCmax; settings: mean of both orientations
T15 chain: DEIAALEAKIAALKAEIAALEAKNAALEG

4H3605-AA = target: T16, 4H3605-AA; experiment: two-hybrid library CCmax; settings: mean of both orientations
T16 chain: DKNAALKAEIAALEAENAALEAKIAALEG

4H3625-AA = target: T17, 4H3625-AA; experiment: two-hybrid library CCmax; settings: mean of both orientations
T17 chain: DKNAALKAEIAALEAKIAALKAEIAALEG

4H3664-AA = target: T18, 4H3664-AA; experiment: two-hybrid library CCmax; settings: mean of both orientations
T18 chain: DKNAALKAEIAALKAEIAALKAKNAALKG

4H369-AA = target: T19, 4H369-AA; experiment: two-hybrid library CCmax; settings: mean of both orientations
T19 chain: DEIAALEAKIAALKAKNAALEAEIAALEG

4H3922-AA = target: T20, 4H3922-AA; experiment: two-hybrid library CCmax; settings: mean of both orientations
T20 chain: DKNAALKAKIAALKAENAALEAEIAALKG

4H4033-AA = target: T21, 4H4033-AA; experiment: two-hybrid library CCmax; settings: mean of both orientations
T21 chain: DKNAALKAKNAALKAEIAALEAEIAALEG

4H481-AA = target: T22, 4H481-AA; experiment: two-hybrid library CCmax; settings: mean of both orientations
T22 chain: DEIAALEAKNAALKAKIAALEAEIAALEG

4H55-AA = target: T23, 4H55-AA; experiment: two-hybrid library CCmax; settings: mean of both orientations
T23 chain: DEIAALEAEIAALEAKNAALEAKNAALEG

4H662-AA = target: T24, 4H662-AA; experiment: two-hybrid library CCmax; settings: mean of both orientations
T24 chain: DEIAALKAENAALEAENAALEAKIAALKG

Core_INII-es_KEEK = target: T25, Core_INII-es_KEEK; experiment: two-hybrid library CCmax; settings: mean of both orientations
T25 chain: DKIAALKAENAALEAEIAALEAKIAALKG

4H1257-bA = target: T26, 4H1257-bA; experiment: two-hybrid library CCNG1
T26 chain: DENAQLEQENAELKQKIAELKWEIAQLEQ

4H1446-bA = target: T27, 4H1446-bA; experiment: two-hybrid library CCNG1
T27 chain: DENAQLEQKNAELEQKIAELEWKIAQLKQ

4H1828-bA = target: T28, 4H1828-bA; experiment: two-hybrid library CCNG1
T28 chain: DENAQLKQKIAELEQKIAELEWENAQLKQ

4H1845-bA = target: T29, 4H1845-bA; experiment: two-hybrid library CCNG1
T29 chain: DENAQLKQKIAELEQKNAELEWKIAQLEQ

4H2442-bA = target: T30, 4H2442-bA; experiment: two-hybrid library CCNG1
T30 chain: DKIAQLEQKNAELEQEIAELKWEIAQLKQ

4H2576-bA = target: T31, 4H2576-bA; experiment: two-hybrid library CCNG1
T31 chain: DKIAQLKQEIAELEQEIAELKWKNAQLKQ

4H2618-bA = target: T32, 4H2618-bA; experiment: two-hybrid library CCNG1
T32 chain: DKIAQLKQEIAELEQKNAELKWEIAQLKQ

4H2667-bA = target: T33, 4H2667-bA; experiment: two-hybrid library CCNG1
T33 chain: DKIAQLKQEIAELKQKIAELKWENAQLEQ

4H2729-bA = target: T34, 4H2729-bA; experiment: two-hybrid library CCNG1
T34 chain: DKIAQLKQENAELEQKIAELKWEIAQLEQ

4H3112-bA = target: T35, 4H3112-bA; experiment: two-hybrid library CCNG1
T35 chain: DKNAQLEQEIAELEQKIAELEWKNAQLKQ

4H3185-bA = target: T36, 4H3185-bA; experiment: two-hybrid library CCNG1
T36 chain: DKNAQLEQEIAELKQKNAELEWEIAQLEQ

4H331-bA = target: T37, 4H331-bA; experiment: two-hybrid library CCNG1
T37 chain: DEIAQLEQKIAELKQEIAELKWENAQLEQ

4H3354-bA = target: T38, 4H3354-bA; experiment: two-hybrid library CCNG1
T38 chain: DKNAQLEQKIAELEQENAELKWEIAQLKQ

4H338-bA = target: T39, 4H338-bA; experiment: two-hybrid library CCNG1
T39 chain: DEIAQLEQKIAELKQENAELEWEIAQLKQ

4H3427-bA = target: T40, 4H3427-bA; experiment: two-hybrid library CCNG1
T40 chain: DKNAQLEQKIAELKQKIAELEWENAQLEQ

4H3782-bA = target: T41, 4H3782-bA; experiment: two-hybrid library CCNG1
T41 chain: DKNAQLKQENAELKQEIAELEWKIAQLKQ

4H3855-bA = target: T42, 4H3855-bA; experiment: two-hybrid library CCNG1
T42 chain: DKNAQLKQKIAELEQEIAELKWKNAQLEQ

4H4001-bA = target: T43, 4H4001-bA; experiment: two-hybrid library CCNG1
T43 chain: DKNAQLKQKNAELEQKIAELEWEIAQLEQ

4H454-bA = target: T44, 4H454-bA; experiment: two-hybrid library CCNG1
T44 chain: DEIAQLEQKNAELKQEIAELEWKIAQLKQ

4H568-bA = target: T45, 4H568-bA; experiment: two-hybrid library CCNG1
T45 chain: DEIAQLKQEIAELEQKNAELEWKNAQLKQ

4H607-bA = target: T46, 4H607-bA; experiment: two-hybrid library CCNG1
T46 chain: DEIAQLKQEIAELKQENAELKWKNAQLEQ

4H687-bA = target: T47, 4H687-bA; experiment: two-hybrid library CCNG1
T47 chain: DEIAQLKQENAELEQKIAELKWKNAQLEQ

4H717-bA = target: T48, 4H717-bA; experiment: two-hybrid library CCNG1
T48 chain: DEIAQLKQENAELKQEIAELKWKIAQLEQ

4H72-bA = target: T49, 4H72-bA; experiment: two-hybrid library CCNG1
T49 chain: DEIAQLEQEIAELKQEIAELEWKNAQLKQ

4H754-bA = target: T50, 4H754-bA; experiment: two-hybrid library CCNG1
T50 chain: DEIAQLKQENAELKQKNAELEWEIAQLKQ

4H797-bA = target: T51, 4H797-bA; experiment: two-hybrid library CCNG1
T51 chain: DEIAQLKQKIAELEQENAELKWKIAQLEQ

4H883-bA = target: T52, 4H883-bA; experiment: two-hybrid library CCNG1
T52 chain: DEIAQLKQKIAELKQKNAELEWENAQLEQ

4H908-bA = target: T53, 4H908-bA; experiment: two-hybrid library CCNG1
T53 chain: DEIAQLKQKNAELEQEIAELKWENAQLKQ

4H918-bA = target: T54, 4H918-bA; experiment: two-hybrid library CCNG1
T54 chain: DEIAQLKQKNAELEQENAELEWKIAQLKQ

4H953-bA = target: T55, 4H953-bA; experiment: two-hybrid library CCNG1
T55 chain: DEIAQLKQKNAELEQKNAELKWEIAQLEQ

4H953-bN = target: T56, 4H953-bN; experiment: two-hybrid library CCNG1
T56 chain: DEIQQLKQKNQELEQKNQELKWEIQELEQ

4H967-bA = target: T57, 4H967-bA; experiment: two-hybrid library CCNG1
T57 chain: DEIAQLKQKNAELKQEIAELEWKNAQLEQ

O2-bA = target: T58, O2-bA; experiment: two-hybrid library CCNG1
T58 chain: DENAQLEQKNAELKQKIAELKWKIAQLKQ

P4SC2 [1] = target: T59, P4SC2; experiment: two-hybrid library CCNG1
T59 chain: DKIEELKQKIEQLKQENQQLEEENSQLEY

P4SC2 [2] = target: T59, P4SC2; experiment: two-hybrid library CCmax; settings: mean of both orientations
Core_IIIN-es_KKKK = target: T60, Core_IIIN-es_KKKK; experiment: two-hybrid library CCmax; settings: mean of both orientations
T60 chain: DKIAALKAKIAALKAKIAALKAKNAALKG

- interaction score (Core_INII-es_KEEK): 2.32
Binder: DEIAALEAKNAALKAKIAALKAEIAALEG [Core_INII-es_EKKE]

- interaction score (4H1257-bA): -0.0608
- interaction score (4H1446-bA): -0.55
- interaction score (4H1828-bA): -0.782
- interaction score (4H1845-bA): -0.799
- interaction score (4H2442-bA): -0.983
- interaction score (4H2576-bA): 0.908
- interaction score (4H2618-bA): -0.882
- interaction score (4H2667-bA): -0.847
- interaction score (4H2729-bA): -0.154
- interaction score (4H3112-bA): -0.693
- interaction score (4H3185-bA): -1.37
- interaction score (4H331-bA): -0.712
- interaction score (4H3354-bA): -0.884
- interaction score (4H338-bA): -1.24
- interaction score (4H3427-bA): -0.869
- interaction score (4H3782-bA): 2.01
- interaction score (4H3855-bA): -0.705
- interaction score (4H4001-bA): -0.102
- interaction score (4H454-bA): 1.77
- interaction score (4H568-bA): -1.75
- interaction score (4H607-bA): -1.24
- interaction score (4H687-bA): -0.935
- interaction score (4H717-bA): -0.0683
- interaction score (4H72-bA): -1.15
- interaction score (4H754-bA): -1.15
- interaction score (4H797-bA): -0.933
- interaction score (4H883-bA): -1.18
- interaction score (4H908-bA): -1.38
- interaction score (4H918-bA): -0.431
- interaction score (4H953-bA): -1.53
- interaction score (4H953-bN): -2.6
- interaction score (4H967-bA): -1.12
- interaction score (O2-bA): -1.33
Binder: DENAQLEQENAELKQKIAELKWEIAQLEQ [4H1257-bA]

- interaction score (Core_IIIN-es_KKKK): 1.39
Binder: DEIAALEAEIAALEAEIAALEAENAALEG [Core_IIIN-es_EEEE]

Continued, binder first:

Binder: DEIAALKAKNAALKAKNAALKAEIAALEG [4H1017-AA]
- interaction score (4H1017-AA): -1.79
- interaction score (4H1082-AA): -2.19
- interaction score (4H1103-AA): -1.61
- interaction score (4H1198-AA): 0.565
- interaction score (4H1350-AA): -1.39
- interaction score (4H1405-AA): -1.79
- interaction score (4H2211-AA): -1.35
- interaction score (4H2238-AA): 1.64
- interaction score (4H2513-AA): -1.22
- interaction score (4H2536-AA): -1.48
- interaction score (4H2608-AA): -1.64
- interaction score (4H2614-AA): 0.0732
- interaction score (4H2726-AA): 0.98
- interaction score (4H2935-AA): -3.83
- interaction score (4H327-AA): -1.46
- interaction score (4H3605-AA): 0.203
- interaction score (4H3625-AA): -1.94
- interaction score (4H3664-AA): -1.53
- interaction score (4H369-AA): -1.44
- interaction score (4H3922-AA): -0.887
- interaction score (4H4033-AA): -2.3
- interaction score (4H481-AA): -1.63
- interaction score (4H55-AA): -1.6
- interaction score (4H662-AA): 2.48

Binder: DEIQQLEEEIRQLEQKNSQLKEKNQQLKY [P3SC2]
- interaction score (P4SC2 [1]): 1.12
- interaction score (P4SC2 [2]): 0.206
